Results on 10 molecules are retold here after patent US10927153 (UNIVERSITY OF SOUTH FLORIDA, dated 2021).

The target of assay [1] is T1, Duffy Antigen Receptor for Chemokines (DARC) on human Duffy positive erythrocytes (human, UniProt Q16570 1-336).
T1 construct: whole, on cells; also called DARC positive erythrocytes
T1 sequence: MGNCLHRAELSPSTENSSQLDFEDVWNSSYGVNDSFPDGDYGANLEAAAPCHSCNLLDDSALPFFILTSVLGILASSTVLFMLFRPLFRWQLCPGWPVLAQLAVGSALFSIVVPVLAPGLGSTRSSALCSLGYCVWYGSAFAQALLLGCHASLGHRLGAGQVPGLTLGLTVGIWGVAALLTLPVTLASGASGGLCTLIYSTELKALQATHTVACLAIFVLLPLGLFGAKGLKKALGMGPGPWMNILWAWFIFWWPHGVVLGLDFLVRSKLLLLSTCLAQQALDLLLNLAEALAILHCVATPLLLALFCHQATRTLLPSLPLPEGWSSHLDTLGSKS
The assay can be described thus: in vitro erythrocyte binding assay, blot of eluted antigen.

Assay [2] has as its target T1, Duffy Antigen Receptor for Chemokines …. The assay can be described thus: in vitro erythrocyte binding assay, eluted antigen detected by blot with mAb-3D10.
For assay [3] the target is unchanged. The assay can be described thus: COS7 cell binding assay (rosettes).
The target of assay [4] is T2, Sal-1 DBP-II Mutant 1 (changes at residues 218 and 221-223), recombinant (Plasmodium vivax (strain Salvador I), UniProt P22290 211-525).
T2 chain: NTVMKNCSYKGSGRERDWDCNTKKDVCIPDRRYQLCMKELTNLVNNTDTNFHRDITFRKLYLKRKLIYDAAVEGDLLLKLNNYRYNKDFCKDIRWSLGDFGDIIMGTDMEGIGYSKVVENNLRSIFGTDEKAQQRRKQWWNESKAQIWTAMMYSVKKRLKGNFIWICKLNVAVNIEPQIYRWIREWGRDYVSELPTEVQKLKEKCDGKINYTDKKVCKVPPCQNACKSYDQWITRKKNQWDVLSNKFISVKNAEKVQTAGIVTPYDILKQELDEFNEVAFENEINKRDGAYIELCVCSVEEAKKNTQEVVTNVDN
The assay can be described thus: ELISA on adsorbed recombinant protein. On the technique in general: An ELISA detects its analyte on a solid surface through an enzyme-linked reagent.

Assay [5] deals with T3, Sal-1 DBP-II Mutant 12 (changes at residues 479 and 480), recombinant (Plasmodium vivax (strain Salvador I), UniProt P22290 211-525).
T3 chain: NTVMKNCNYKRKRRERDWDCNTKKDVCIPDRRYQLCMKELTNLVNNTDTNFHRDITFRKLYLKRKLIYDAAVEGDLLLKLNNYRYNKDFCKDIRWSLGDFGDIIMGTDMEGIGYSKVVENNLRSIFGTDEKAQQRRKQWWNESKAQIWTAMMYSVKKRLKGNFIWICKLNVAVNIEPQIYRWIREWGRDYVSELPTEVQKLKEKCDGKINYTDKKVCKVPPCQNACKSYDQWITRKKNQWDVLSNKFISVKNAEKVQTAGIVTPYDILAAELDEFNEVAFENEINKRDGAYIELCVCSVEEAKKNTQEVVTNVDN
The assay can be described thus: ELISA on adsorbed recombinant protein.

Assay [6] concerns the target T4, Sal-1 DBP-II expressed on the surface of HEK293T cells (Plasmodium vivax, UniProt P22290 198-525).
T4 construct: Expressed from the pRE4 vector on HEK293T cells; also called P. vivax Sal-1 DBP-II
The assay can be described thus: immunofluorescence on HEK293T cells, 10 ug/mL mAb.

B1: recombinant DEKnull-2 (designed binder)
chain: TISSAIINHAFLQNTVMKNCNYKRKRRERDWDCNTKKDVCIPDRRYQLCMKELTNLVNNTDTNFHADITFRKLYLKAKLIYDAAVEGDLLTKLNNYRYNKDFCKDIRWSLGDFGDIIMGTDMEGIGTSAVVENNLRSIFGTAATAQARRSQWTSESKAQIWTAMMYSVKKRLKGTFIWICKANVAVNIEPQIYRSIREWGRDYVAELPTEVTKLKEKCDGKINYADKKVCKVPPCQNACKSYDQWITRKANQWDVLSNKFTSAKNAEKAQTASIVTPYDILKQELDEFNEVAFENEINKRDGAYIELCVCSVEEAKKNTQEVVTNVDNHHHHHH
notes: Polymorphic residues of Sal1 mutated; also called rDEKnull-2
Take B1: the binding result in assay [1] is given as “binds”.

B2: recombinant DEKnull-3 (designed binder)
chain: TISSAIINHAFLQNTVMKNCNYKRKRRERDWDCNTKKDVCIPDRRYQLCMKELTNLTATATSAAHRDITFRKLYAARTSAYDAAVEGDLLLKLTNYRASTDACKAATWSLGDFGDIIMGTDMEGIGYSKVVATNLRSIFGTDEKAQQRRKQWTATSKAQIWTAMMAASTAASKGNAIWSCKLNVAVNIEPTIAAWIATSARATSSELPTEVQKLKEKCDGKINYTDKKVCKVPPCQNACKSYDQWITRKKNQWDVLSNKFISVKNAEKVQTAGIVTPYDILKQELDEFNEVAFENEINKRDGAYIELCVCSVEEAKKNTQEVVTNVDNHHHHHH
notes: also called rDEKnull-3
On to B2, for which the binding result in assay [2] is “no binding”.

B3: DEKnull-4 expressed on the surface of COS7 cells (designed binder)
chain: TISSAIINHAFLQNTVMKNCNYKRKRRERDWDCNTKKDVCIPDRRYQLCMKALTNLVNNTDTNFHRDITARKAYLAAKLTADAASEGDLLLKLAATATSAATCKDIRWSLGDFGDIIMGTDMEGIGYSKVVENNLRSIFGTDEKAQQRRKQWWNESKATIWTAMMASATASAATSAATAAKLNVAVNIEPQIYRWIREWGRDYVSELPTEVQKLKEKCDGKINYTDKKVCKVPPCQNACKSYDQWITRKKNQWDVLSNKFISVKNAEKVQTAGIVTPYDILKQELDEFNEVAFENEINKRDGAYIELCVCSVEEAKKNTQEVVTNVDN
notes: also called COS7 cell surface-expressed DEKnull-4
B3: the binding result in assay [3] was “no binding”.

B4: DEKnull-2 expressed on the surface of COS7 cells (designed binder)
chain: TISSAIINHAFLQNTVMKNCNYKRKRRERDWDCNTKKDVCIPDRRYQLCMKELTNLVNNTDTNFHADITFRKLYLKAKLIYDAAVEGDLLTKLNNYRYNKDFCKDIRWSLGDFGDIIMGTDMEGIGTSAVVENNLRSIFGTAATAQARRSQWTSESKAQIWTAMMYSVKKRLKGTFIWICKANVAVNIEPQIYRSIREWGRDYVAELPTEVTKLKEKCDGKINYADKKVCKVPPCQNACKSYDQWITRKANQWDVLSNKFTSAKNAEKAQTASIVTPYDILKQELDEFNEVAFENEINKRDGAYIELCVCSVEEAKKNTQEVVTNVDN
notes: also called COS7 cell surface-expressed rDEKnull-2
For the molecule B4, the binding result in assay [3] was “binds”.

B5: DEKnull-3 expressed on the surface of COS7 cells (designed binder)
chain: TISSAIINHAFLQNTVMKNCNYKRKRRERDWDCNTKKDVCIPDRRYQLCMKELTNLTATATSAAHRDITFRKLYAARTSAYDAAVEGDLLLKLTNYRASTDACKAATWSLGDFGDIIMGTDMEGIGYSKVVATNLRSIFGTDEKAQQRRKQWTATSKAQIWTAMMAASTAASKGNAIWSCKLNVAVNIEPTIAAWIATSARATSSELPTEVQKLKEKCDGKINYTDKKVCKVPPCQNACKSYDQWITRKKNQWDVLSNKFISVKNAEKVQTAGIVTPYDILKQELDEFNEVAFENEINKRDGAYIELCVCSVEEAKKNTQEVVTNVDN
notes: also called COS7 cell surface-expressed DEKnull-3
On to B5, for which, in assay [3], the binding result was “no binding”.

B6: DBPII Sal1 expressed on the surface of COS7 cells (ligand)
chain: TISSAIINHAFLQNTVMKNCNYKRKRRERDWDCNTKKDVCIPDRRYQLCMKELTNLVNNTDTNFHRDITFRKLYLKRKLIYDAAVEGDLLLKLNNYRYNKDFCKDIRWSLGDFGDIIMGTDMEGIGYSKVVENNLRSIFGTDEKAQQRRKQWWNESKAQIWTAMMYSVKKRLKGNFIWICKLNVAVNIEPQIYRWIREWGRDYVSELPTEVQKLKEKCDGKINYTDKKVCKVPPCQNACKSYDQWITRKKNQWDVLSNKFISVKNAEKVQTAGIVTPYDILKQELDEFNEVAFENEINKRDGAYIELCVCSVEEAKKNTQEVVTNVDN
notes: also called COS7 cell surface-expressed Sal1; wild type DBPII Sal1
As to B6, the binding result in assay [3] was “binds”.

B7: recombinant DBPII Sal1 (ligand domain, region II, of Plasmodium vivax Duffy binding protein, Sal1 allele) (ligand)
chain: TISSAIINHAFLQNTVMKNCNYKRKRRERDWDCNTKKDVCIPDRRYQLCMKELTNLVNNTDTNFHRDITFRKLYLKRKLIYDAAVEGDLLLKLNNYRYNKDFCKDIRWSLGDFGDIIMGTDMEGIGYSKVVENNLRSIFGTDEKAQQRRKQWWNESKAQIWTAMMYSVKKRLKGNFIWICKLNVAVNIEPQIYRWIREWGRDYVSELPTEVQKLKEKCDGKINYTDKKVCKVPPCQNACKSYDQWITRKKNQWDVLSNKFISVKNAEKVQTAGIVTPYDILKQELDEFNEVAFENEINKRDGAYIELCVCSVEEAKKNTQEVVTNVDN
notes: also called rDBPII Sal1; rDBPII
As to B7, the binding result in assay [1] is “binds”.

B8: recombinant DEKnull (designed binder)
chain: TISSAIINHAFLQNTVMKNCNYKRKRRERDWDCNTKKDVCIPDRRYQLCMKELTNLVNNTDTNFHRDITFRKLYLKRKLIYDAAVEGDLLLKLNNYRYNKDFCKDIRWSLGDFGDIIMGTDMEGIGYSKVVENNLRSIFGTAATAQATRSQWTSESKAQIWTAMMYSVKKRLKGNFIWICKLNVAVNIEPQIYRWIREWGRDYVSELPTEVQKLKEKCDGKINYTDKKVCKVPPCQNACKSYDQWITRKKNQWDVLSNKFISVKNAEKVQTAGIVTPYDILKQELDEFNEVAFENEINKRDGAYIELCVCSVEEAKKNTQEVVTNVDN
notes: also called rDEKnull; original DEKnull
Consider B8, for which the binding result in assay [1] is given as “binds”.

B9: recombinant DEKnull-4 (designed binder)
chain: TISSAIINHAFLQNTVMKNCNYKRKRRERDWDCNTKKDVCIPDRRYQLCMKALTNLVNNTDTNFHRDITARKAYLAAKLTADAASEGDLLLKLAATATSAATCKDIRWSLGDFGDIIMGTDMEGIGYSKVVENNLRSIFGTDEKAQQRRKQWWNESKATIWTAMMASATASAATSAATAAKLNVAVNIEPQIYRWIREWGRDYVSELPTEVQKLKEKCDGKINYTDKKVCKVPPCQNACKSYDQWITRKKNQWDVLSNKFISVKNAEKVQTAGIVTPYDILKQELDEFNEVAFENEINKRDGAYIELCVCSVEEAKKNTQEVVTNVDNHHHHHH
notes: Dimerization residues of Sal1 mutated; also called rDEKnull-4
With B9, the binding result in assay [2] is recorded as “no binding”.

B10: anti-DBPII monoclonal antibody mAb 2C6 (antibody, V domains shown)
VH: QVQLQQSDAELVKPGASVKISCKVSGYTFTDHSIHWMKQRPEQGLEWIGYIYPRDGSTEYNEKFKGKATLTTDKSSSTAYMQLNSLTSADSAVYFCARWFGYYFDYWGQGTTLTVSS
VL: NIMMTQSPSSLAVSAGEKVTMSCKSSQSVLYSSNQKNYLAWYQQKPGQSPKLLIYWASSRESGVPDRFTGSGSGTDFTLTISSVQPEDLAVYYCHQYLSSWTFGGGTKLEITR
For B10, the figures for the binding result in assay [4], in assay [5] and in assay [6] were “binds”, “no binding” and “binds”, respectively.
